Measured values as given in PMC7588069.

Biological target: GST fusion with the receptor interaction domains (RID) of NCoRδ (region equivalent to amino acids 1817–2453 of NCoRω)
Assay: pull-down; GST fusion protein (~50 ng) immobilised on ~10 μl glutathione-agarose; 35S-radiolabeled in vitro translated nuclear receptor (2–5 μl TnT product) in 120 μl HEMG buffer (4 mM HEPES pH 7.8, 0.2 mM EDTA, 5 mM MgCl2, 10% glycerol, 100 mM KCl, 0.1% Nonidet P-40, 1.5 mM DTT) with 10 mg/ml BSA; 3 hr at 4°C; eluted with 10 mM glutathione, SDS-PAGE, PhosphorImager

Row | relative binding to NCoRδ versus NCoRω (ratio (NCoRδ versus NCoRω)) | Molecule
1 | 0.88 | Peroxisome Proliferator Activated Receptor γ (from UniProt P37231 1-505)
2 | 0.42 | Thyroid Hormone Receptor α (from UniProt P10827-2 1-410)
3 | 0.35 | Farnesoid X Receptor (receptor, 35S-radiolabeled) MVMQFQGLENPIQISPHCSCTPSGFFMEMMSMKPAKGVLTEQVAGPLGQNLEVEPYSQYSNVQFPQVQPQISSSSYYSNLGFYPQQPEEWYSPGIYELRRMPAETLYQGETEVAEMPVTKKPRMGASAGRIKGDELCVVCGDRASGYHYNALTCEGCKGFFRRSITKNAVYKCKNGGNCVMDMYMRRKCQECRLRKCKEMGMLAECMYTGLLTEIQCKSKRLRKNVKQHADQTVNEDSEGRDLRQVTSTTKSCREKTELTPDQQTLLHFIMDSYNKQRMPQEITNKILKEEFSAEENFLILTEMATNHVQVLVEFTKKLPGFQTLDHEDQIALLKGSAVEAMFLRSAEIFNKKLPSGHSDLLEERIRNSGISDEYITPMFSFYKSIGELKMTQEEYALLTAIVILSPDRQYIKDREAVEKLQEPLLDVLQKLCKIHQPENPQHFACLLGRLTELRTFNHHHAEMLMSWRVNDHKFTPLLCEIWDVQ
4 | 0.79 | Peroxisome Proliferator Activated Receptor α (receptor, 35S-radiolabeled) MVDTESPLCPLSPLEAGDLESPLSEEFLQEMGNIQEISQSIGEDSSGSFGFTEYQYLGSCPGSDGSVITDTLSPASSPSSVTYPVVPGSVDESPSGALNIECRICGDKASGYHYGVHACEGCKGFFRRTIRLKLVYDKCDRSCKIQKKNRNKCQYCRFHKCLSVGMSHNAIRFGRMPRSEKAKLKAEILTCEHDIEDSETADLKSLAKRIYEAYLKNFNMNKVKARVILSGKASNNPPFVIHDMETLCMAEKTLVAKLVANGIQNKEAEVRIFHCCQCTSVETVTELTEFAKAIPGFANLDLNDQVTLLKYGVYEAIFAMLSSVMNKDGMLVAYGNGFITREFLKSLRKPFCDIMEPKFDFAMKFNALELDDSDISLFVAAIICCGDRPGLLNVGHIEKMQEGIVHVLRLHLQSNHPDDIFLFPKLLQKMADLRQLVTEHAQLVQIIKKTESDAALHPLLQEIYRDMY
5 | 0.51 | Liver X Receptor α (receptor, 35S-radiolabeled) MSLWLGAPVPDIPPDSAVELWKPGAQDASSQAQGGSSCILREEARMPHSAGGTAGVGLEAAEPTALLTRAEPPSEPTEIRPQKRKKGPAPKMLGNELCSVCGDKASGFHYNVLSCEGCKGFFRRSVIKGAHYICHSGGHCPMDTYMRRKCQECRLRKCRQAGMREECVLSEEQIRLKKLKRQEEEQAHATSLPPRASSPPQILPQLSPEQLGMIEKLVAAQQQCNRRSFSDRLRVTPWPMAPDPHSREARQQRFAHFTELAIVSVQEIVDFAKQLPGFLQLSREDQIALLKTSAIEVMLLETSRRYNPGSESITFLKDFSYNREDFAKAGLQVEFINPIFEFSRAMNELQLNDAEFALLIAISIFSADRPNVQDQLQVERLQHTYVEALHAYVSIHHPHDRLMFPRMLMKLVSLRTLSSVHSEQVFALRLQDKKLPPLLSEIWDVHE
